# Test results taken from paper PMC11554683, “GNG5 is a novel regulator of Aβ42 production in Alzheimer’s disease” (Cell Death & Disease, 2024).
# B1: recombinant GNG5 (G protein subunit gamma 5) (natural protein, UniProt P63218 1-68, looked up)
# chain: MSGSSSVAAMKKVVQQLRLEAGLNRVKVSQAAADLKQFCLQNAQHDPLLTGVSSSTNPFRPQKVCSFL
# notes: G protein subunit gamma 5 (GNG5); Purity >95% is stated; also called purified GNG5; homotrimer-GNG5; source: E. coli BL21 (DE3), purified (HisTrap HP, PD-10)
# Molecular target: the molecule itself
# Experiment: western blot (band sizes); recombinant GNG5 (purity >95%) used to assess anti-GNG5 antibodies (Fig. S3B)
protein,measurement,value
B1,stoichiometry N,3
